Test results as given in the nanobody polyreactivity screen of Harvey et al. (2022).

Assay: yeast display, Sf9 membrane polyspecificity reagent, FACS + sequencing; frameworks hold sequencing errors
Summary of the method: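 Using colony PCR, genes from sorted yeast display clones were amplified, then sequenced on MiSeq at 2 × 250 and filtered by CDR length. The clones had been stained with 10% biotinylated, detergent-solubilized Sf9 membrane reagent for 1 hour at 4 °C and sorted by FACS into low and high (top ~1%) gates on anti-HA and streptavidin fluorescence. Polyreactivity labels come from the gate of origin.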

Row | Sequence | polyreactivity (PSR sort gate)
1 | QVQLVESGGGLVQAGGSLRLSCAASGSIFWRNAMGWYRQAPGKERELVAAISRVGSTNYADSVKGRFTISRDNAKNTVYLQMNSLKPQDTAVYYCAVDGGEFSSYGYWGQGTQVTVSS | low polyreactivity
2 | QVQLVESGGGLVQAGGSLRLSCAASGSIFWRNMGWYRQAPGKERELVAAISYGSVSTYYADSVKGRFTISRDNAKNTVYLQMNSLKPEDTAVYYCAATLPGWYNEHDSWGLGTQVTVSS | low polyreactivity
3 | QVQLVESGGGLVQAGGSLRLSCAASGSIFWRYAMGRYRQAPGKEREVVAAISGSGVRTSYADSVKGRFTISRDNAKNTVYLQMNSLKAEDTAVYYCATDIRSGRYYWGQGTQVTVSS | high polyreactivity
4 | QVQLVESGGGLVQAGGSLRLSCAASGSIFWRYAMGWYRQAPGKERELVAAINYSTTRTYYADSVKGRFTISLDNAKNTVYLQMNSLKPEDTAVYYCAADSRVDEGEYWGQGTQVTVSS | high polyreactivity
5 | QVQLVESGGGLVQAGGSLRLSCAASGSIFWSYAMGWYRQAPGKERELVAAITRSGGSTYYADSVKGRFTISRDNAKNTVYLQINSLKPEDTAVDYCNAATPYSWGYRRGYWGQGTQVTVSS | high polyreactivity
6 | QVQLVESGGGLVQAGGSLRLSCAASGSIFWSYAMGWYRQAPGKERELVADSVKGRFTISRDNAKNTVYLQMNSLKPEDTAVYYCAADSPSAPVYLYDYWGQGTQVTVSS | low polyreactivity
7 | QVQLVESGGGLVQAGGSLRLSCAASGSIFWSYAMGWYRQAPGKERELVASISRSTGRTRYADSVKGRFTISRDNAKNTVYLQMNSLKPEDTAVYYCAATRRAGFTTAKFDYWGQGTQVTVSS | high polyreactivity
8 | QVQLVESGGGLVQAGGSLRLSCAASGSIFWTNAMGWYRQAPGKERELVAAIRVSTGSTYYADSVKGRFTISRDIAKNNVYLQMNSLKPEDTAVYYCNADLYIYEWYPALHSNDYWGQGTQVTVSS | low polyreactivity
9 | QVQLVESGGGLVQAGGSLRLSCAASGSIFWVNAMGWYRQAPGKERELVAAITWSAGSTYYADSVKGRFTISRDNAKNTVYLQMNSLKPEDTAVYYCAAGGAWYYWTLDYWGQGTQVTVSS | low polyreactivity
10 | QVQLVESGGGLVQAGGSLRLSCAASGSIFWVYAMGWYRQAPGKERELVAAISSGGSTNYADSVKGRFTISRDNAKNTVYLQMNSLKPEDTAVYYCAAVIRTVRERYGFWGQGTQVTVSS | high polyreactivity
11 | QVQLVESGGGLVQAGGSLRLSCAASGSIFWVYAMGWYRQAPGKERELVAVIDWSGDSTYYADSVKGRFTISRDNAKNTVYLQMNSLKPEDTAVYYCSAEVYVDYTGYSYFDYPYDYWGQGTQVTVSS | low polyreactivity
12 | QVQLVESGGGLVQAGGSLRLSCAASGSIFWVYVLGWYRQAPGKERELVAAITNGGSTDYADSVKGRFTISRDNAKNTVYLQMNSLKPEDTAVYYCAKRSTIWGRILITYDYWGQGTQVTVSS | low polyreactivity
13 | QVQLVESGGGLVQAGGSLRLSCAASGSIFWYNAMGWYRQAPGKERELVAAIRWRGGSTYYADSVKGRFTISRDNAKNTVYLQMNSLKPEDTAVYDCAAQVYVSQLYTSYYYWGQGTQVTVSS | high polyreactivity
14 | QVQLVESGGGLVQAGGSLRLSCAASGSIFWYNTMGWYRQAPGKERELVAAISSSGGTTYYADSVKGRFTISRDNAKNTVYLQMNSLKPEDTAVYYCAATVGDAYYEYDYWGQGTQVTVSS | low polyreactivity
15 | QVQLVESGGGLVQAGGSLRLSCAASGSIFWYNTMGWYRQAPGKERELVASISWDGGTYYADSVKGRFTISRDNAKNTVYLQMNSLKPEDTAVYYCNVAWYWGYDYWGQGTQVTVSS | low polyreactivity
16 | QVQLVESGGGLVQAGGSLRLSCAASGSIFWYYAMGWSRQAPGKERELVASISSSGGSTYYADSVKGRFTISRDNAKNTVYLQMNSLKPEDTAVYYCAVRSPYRLSRWRVGYWGQGTQVTVSS | high polyreactivity
17 | QVQLVESGGGLVQAGGSLRLSCAASGSIFWYYAMGWYRQAPGKERELDASITRGGSTKYADSVKGRFTISLDNAKNPVYLQMNSLKPEDTAVYYCATTYRLYRVNYDYYWGQGTQVSVSS | high polyreactivity
18 | QVQLVESGGGLVQAGGSLRLSCAASGSIFYANAMGWYRQAPGKERELVAAISRSGGRTYYADSVKGRFTISRDNSKNTVYLQMNSLKPEDTAVYYCAADTGRYRDSNYWGQGTQVTVSS | high polyreactivity
19 | QVQLVESGGGLVQAGGSLRLSCAASGSIFYDKDSGWYRQAPGKERELFAAITSTGGSTYYADSVKGRFTISRDHAKNTVYLQMNSLKPEDTAVYDCNTPTYLYWGFNTYDYWGQGTQFTVSS | low polyreactivity
20 | QVQLVESGGGLVQAGGSLRLSCAASGSIFYDNAMGWYRQAPGKERELVAAITIDGSTYADSVKGRFTISRDNAKYTVYLQMNSLKPEDTAVYYCAAEWDTNFWYDYWGQGTQVTVSS | low polyreactivity
21 | QVQLVESGGGLVQAGGSLRLSCAASGSIFYDNDMGWYRQAPGNERELVAAISWSASDTYYADSVKGRFTISRDNAKNTVYLQMNSLKPDDTAVYYCNAEVYEWYVVYSALDYWGQGTQVTVSS | low polyreactivity
22 | QVQLVESGGGLVQAGGSLRLSCAASGSIFYENDMGWYRQAPGKERELVAAISSGGTTNYADSVKGRFTISRDNAKNTVYLQMNSLKPEDTAVYYCAAEYPSVYYERFDYWGQGTQVTVSS | low polyreactivity
23 | QVQLVESGGGLVQAGGSLRLSCAASGSIFYFHALGWYRQAPGKERELVAAITRRGGSTRYADSVKGRFTISRDNAKNTVYLQMNSLKPEDTAVYYCAAVKEYSYSYKSYDVYYWGQGTQVTVSS | high polyreactivity
24 | QVQLVESGGGLVQAGGSLRLSCAASGSIFYFNAMGWYRQAPGKERELVAAITYSGGSTYYADSVKGRFTISRDNAKNTVYLQMNSLKPEDTAVYYCAAERRTFPLRNFDYWGQGTQVTVLS | low polyreactivity
25 | QVQLVESGGGLVQAGGSLRLSCAASGSIFYFNAMGWYRQAPGKERELVAAITYSGGSTYYADSVKGRFTISRDNAKNTVYLQMNSLKPEDTAVYYCNAQVYYSVRGYPYGYYRNDYWGQGTQVTVSS | low polyreactivity
26 | QVQLVESGGGLVQAGGSLRLSCAASGSIFYFYTMGWYRQAPGKEREFVAAINGIGGSTYYADSVKGRFTISRDNAKNTVYLQMNSLKPEDTAVYYCAADAPWFKRNARKYNYWGQGTQVTVSS | low polyreactivity
27 | QVQLVESGGGLVQAGGSLRLSCAASGSIFYGNTMGWYRQAPGKERELVAAIDYRGDSTYYADSVKGRFTISRDNAKNTVYLQMNSLKPVDTAVYYCAADQTPVGQVYYGTLSIRDYWGQGTQVSVSS | low polyreactivity
28 | QVQLVESGGGLVQAGGSLRLSCAASGSIFYGNTMGWYRQAPGKERELVAAISSGGSTKYADSVKGRFTISRDNAKNTVYLQMNSLKPEDTAVFYCAADLPRYWVTWMDYWGQGTQVTVSS | low polyreactivity
29 | QVQLVESGGGLVQAGGSLRLSCAASGSIFYGNVMGWYRQAPGKERELVAAISWRGGSTYYADSVKGRFTMSRDNAKNTVYLPMNSLKPEDTAVYYCNAERYYYATYGYPIDYWGQGTQVTVSS | low polyreactivity
30 | QVQLVESGGGLVQAGGSLRLSCAASGSIFYGYAMGWYRPAPGKERELVAAITSGGRTYYADSVKGRFTISRDNAKNTVYLQMNSLKPEDTAVYYCNKLNYWSVRYEYWGQGTQVTVSS | high polyreactivity
